From patent US20170081400A1 (CEPHALON, published 2017)
Numbering of substitutions follows the chain as printed.

Columns and labels:
[1] = target: T1, human TL1A extracellular domain with N-terminal HIS and FLAG tag (human, UniProt O95150 72-251); assay: SPR Run 5, Ab from supernatant captured on Protein A, TL1A 5 ug/mL, timepoint 44
T1 construct: the whole entry is named
T1 sequence: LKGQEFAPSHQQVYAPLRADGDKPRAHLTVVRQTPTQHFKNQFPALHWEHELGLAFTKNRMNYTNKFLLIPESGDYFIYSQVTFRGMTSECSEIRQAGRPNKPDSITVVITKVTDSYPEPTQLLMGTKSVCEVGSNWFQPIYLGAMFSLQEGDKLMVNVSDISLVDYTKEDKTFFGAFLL
Description: (§1) 1.5. Antibody expression and antigen binding as determined by SPR. Using a CM5 sensor chip (GE Healthcare) Protein A (Pierce) was coupled to the chip surface using an amine coupling kit (GE Healthcare). Protein A was coupled on flow cell 1 and 2 (or alternatively 3 and 4) using a BIACORE® T200. […] The amount of supernatant or purified protein (as well as the concentration) injected during the capture stage varied between runs and is specified in the header of the Tables 3-11. At the end of injection of the supernatant or purified antibody the change in response units was measured. This value was reported as Capture Level in Tables 3-11. […] The response units were measured prior to the end of the dissociation phase. […] The sensorgrams were double referenced (flow cell 2 is subtracted from flow cell 1 and a buffer blank). As there were a large number of antibody variants to screen, these were screened across different runs (Tables 3-11). […] A summary of the conditions used in each run is below:
(§2) 2.1. […] In some experiment the antibodies were purified using Protein A chromatography (See 1.4) and purified antibodies were used in BIACORE® (GE Healthcare) experiments.

[2] = target: T1, human TL1A extracellular domain with …; assay: SPR Run 5, Ab from supernatant captured on Protein A, TL1A 5 ug/mL, timepoint 220
Description: as §1, §2

[3] = target: T2, human TL1A extracellular domain with N-terminal HIS and FLAG tag (human) (UniProt O95150); assay: cell-based or functional assay
T2 sequence: T1 sequence

[4] = target: T3, human TL1A extracellular domain with N-terminal HIS and FLAG tag (human, UniProt O95150 72-251); assay: SPR run 2; supernatant on Protein A; TL1A 10 ug/mL; timepoint 44
T3 construct: whole entry named. ~70 kDa fraction purified by gel filtration
T3 sequence: T1 sequence
Description: as §1, §2

[5] = target: T3, human TL1A extracellular domain with …; assay: SPR run 2; supernatant on Protein A; TL1A 10 ug/mL; timepoint 220
Description: as §1, §2

B1: 320-373 (antibody, human IgG1, name in Kabat numbering, V domains shown)
VH: QVQLVQSGAEVKKPGASVKVSCKASGYTFTSYDINWVRQAPGQGLEWMGWLNPNSGNTGYAQKFQGRVTMTADRSTSTAYMELSSLRSEDTAVYYCAREVPETAAFEYWGQGTLVTVSS
VL: QSVLTQPPSVSGAPGQRVTISCTSSSSDIGAGLGVHWYQQLPGTAPKLLIEGYYNRPSGVPDRFSGSKSGTSASLTITGLLPEDEGDYYCQSYDGTLSQLFGGGTKLTVLG
notes: human IgG1, lambda
TL1A Binding Level (Early) [1]: -1 RU
TL1A Binding Level (Late) [2]: -1 RU

B2: 320-375 (antibody, human IgG1, name in Kabat numbering, V domains shown)
VH: B1 VH
VL: B1 VL with Q99H
notes: human IgG1, lambda
TL1A Binding Level (Early) [1]: -2 RU
TL1A Binding Level (Late) [2]: -1 RU

B3: 320-376 (antibody, human IgG1, name in Kabat numbering, V domains shown)
VH: B1 VH
VL: B1 VL with Q99K
notes: human IgG1, lambda
TL1A Binding Level (Early) [1]: 3 RU
TL1A Binding Level (Late) [2]: 1 RU

B4: 320-377 (antibody, human IgG1, name in Kabat numbering, V domains shown)
VH: B1 VH
VL: B1 VL with Q99L
notes: human IgG1, lambda
TL1A Binding Level (Early) [1]: -1 RU
TL1A Binding Level (Late) [2]: -1 RU

B5: 320-378 (antibody, human IgG1, name in Kabat numbering, V domains shown)
VH: B1 VH
VL: B1 VL with Q99W
notes: human IgG1, lambda
TL1A Binding Level (Early) [1]: -1 RU
TL1A Binding Level (Late) [2]: -1 RU

B6: 320-379 (antibody, human IgG1, name in Kabat numbering, V domains shown)
VH: B1 VH
VL: B1 VL with Q99Y
notes: human IgG1, lambda
TL1A Binding Level (Early) [1]: 3 RU
TL1A Binding Level (Late) [2]: 1 RU

B7: 320-381 (antibody, human IgG1, name in Kabat numbering, V domains shown)
VH: B1 VH
VL: B1 VL with Q99A, L100S
notes: human IgG1, lambda
TL1A Binding Level (Early) [1]: 3 RU
TL1A Binding Level (Late) [2]: 1 RU

B8: 320-382 (antibody, human IgG1, name in Kabat numbering, V domains shown)
VH: B1 VH
VL: B1 VL with Q99A, L100Q
notes: human IgG1, lambda
TL1A Binding Level (Early) [1]: 0 RU
TL1A Binding Level (Late) [2]: 0 RU

B9: 320-383 (antibody, human IgG1, name in Kabat numbering, V domains shown)
VH: B1 VH
VL: B1 VL with Q99A, L100D
notes: human IgG1, lambda
TL1A Binding Level (Early) [1]: 3 RU
TL1A Binding Level (Late) [2]: 1 RU

B10: 320-384 (antibody, human IgG1, name in Kabat numbering, V domains shown)
VH: B1 VH
VL: B1 VL with Q99A, L100H
notes: human IgG1, lambda
TL1A Binding Level (Early) [1]: 3 RU
TL1A Binding Level (Late) [2]: 2 RU

B11: 320-387 (antibody, human IgG1, name in Kabat numbering, V domains shown)
VH: B1 VH
VL: B1 VL with Q99A, L100Y
notes: human IgG1, lambda
TL1A Binding Level (Early) [1]: 11 RU
TL1A Binding Level (Late) [2]: 10 RU

B12: 320-388 (antibody, human IgG1, name in Kabat numbering, V domains shown)
VH: B1 VH with G26A
VL: B1 VL with Q99A
notes: human IgG1, lambda
TL1A Binding Level (Early) [1]: 14 RU
TL1A Binding Level (Late) [2]: 13 RU

B13: 320-389 (antibody, human IgG1, name in Kabat numbering, V domains shown)
VH: B1 VH with G26S
VL: B1 VL with Q99A
notes: human IgG1, lambda
TL1A Binding Level (Early) [1]: 12 RU
TL1A Binding Level (Late) [2]: 11 RU

B14: 320-390 (antibody, human IgG1, name in Kabat numbering, V domains shown)
VH: B1 VH with G26Q
VL: B1 VL with Q99A
notes: human IgG1, lambda
TL1A Binding Level (Early) [1]: 12 RU
TL1A Binding Level (Late) [2]: 11 RU

B15: 320-391 (antibody, human IgG1, name in Kabat numbering, V domains shown)
VH: B1 VH with G26D
VL: B1 VL with Q99A
notes: human IgG1, lambda
TL1A Binding Level (Early) [1]: 14 RU
TL1A Binding Level (Late) [2]: 13 RU

B16: 320-392 (antibody, human IgG1, name in Kabat numbering, V domains shown)
VH: B1 VH with G26H
VL: B1 VL with Q99A
notes: human IgG1, lambda
TL1A Binding Level (Early) [1]: 12 RU
TL1A Binding Level (Late) [2]: 11 RU

B17: 320-393 (antibody, human IgG1, name in Kabat numbering, V domains shown)
VH: B1 VH with G26K
VL: B1 VL with Q99A
notes: human IgG1, lambda
TL1A Binding Level (Early) [1]: 12 RU
TL1A Binding Level (Late) [2]: 11 RU

B18: 320-394 (antibody, human IgG1, name in Kabat numbering, V domains shown)
VH: B1 VH with G26L
VL: B1 VL with Q99A
notes: human IgG1, lambda
TL1A Binding Level (Early) [1]: 13 RU
TL1A Binding Level (Late) [2]: 12 RU

B19: 320-395 (antibody, human IgG1, name in Kabat numbering, V domains shown)
VH: B1 VH with G26W
VL: B1 VL with Q99A
notes: human IgG1, lambda
TL1A Binding Level (Early) [1]: 13 RU
TL1A Binding Level (Late) [2]: 12 RU

B20: 320-396 (antibody, human IgG1, name in Kabat numbering, V domains shown)
VH: B1 VH with G26Y
VL: B1 VL with Q99A
notes: human IgG1, lambda
TL1A Binding Level (Early) [1]: 12 RU
TL1A Binding Level (Late) [2]: 11 RU

B21: 320-397 (antibody, human IgG1, name in Kabat numbering, V domains shown)
VH: B1 VH with Y27A
VL: B1 VL with Q99A
notes: human IgG1, lambda
TL1A Binding Level (Early) [1]: 12 RU
TL1A Binding Level (Late) [2]: 12 RU

B22: 320-398 (antibody, human IgG1, name in Kabat numbering, V domains shown)
VH: B1 VH with Y27S
VL: B1 VL with Q99A
notes: human IgG1, lambda
TL1A Binding Level (Early) [1]: 12 RU
TL1A Binding Level (Late) [2]: 11 RU

B23: 320-399 (antibody, human IgG1, name in Kabat numbering, V domains shown)
VH: B1 VH with Y27Q
VL: B1 VL with Q99A
notes: human IgG1, lambda
TL1A Binding Level (Early) [1]: 10 RU
TL1A Binding Level (Late) [2]: 10 RU

B24: 320-226 (antibody, human IgG1, name in Kabat numbering, V domains shown)
VH: B1 VH
VL: B1 VL with S27Q, Q99A
notes: human IgG1, lambda
Antibody IC50, TL1A induced caspase potency assay in TF-1 cells [3]: 0.03 µg/mL
Fold improvement over 320-179, TL1A induced caspase potency assay in TF-1 cells [3]: 1 fold
TL1A Binding Level (Early) [4]: 250 RU
TL1A Binding Level (Late) [5]: 228 RU

B25: 320-229 (antibody, human IgG1, name in Kabat numbering, V domains shown)
VH: B1 VH
VL: B1 VL with S27K, Q99A
notes: human IgG1, lambda
Antibody IC50, TL1A induced caspase potency assay in TF-1 cells [3]: 0.04 µg/mL
Fold improvement over 320-179, TL1A induced caspase potency assay in TF-1 cells [3]: 2 fold
TL1A Binding Level (Early) [4]: 268 RU
TL1A Binding Level (Late) [5]: 251 RU

B26: 320-241 (antibody, human IgG1, name in Kabat numbering, V domains shown)
VH: B1 VH
VL: B1 VL with I29A, Q99A
notes: human IgG1, lambda
Antibody IC50, TL1A induced caspase potency assay in TF-1 cells [3]: 0.02 µg/mL
Fold improvement over 320-179, TL1A induced caspase potency assay in TF-1 cells [3]: 1 fold
TL1A Binding Level (Early) [4]: 179 RU
TL1A Binding Level (Late) [5]: 122 RU

B27: 320-245 (antibody, human IgG1, name in Kabat numbering, V domains shown)
VH: B1 VH
VL: B1 VL with I29H, Q99A
notes: human IgG1, lambda
Antibody IC50, TL1A induced caspase potency assay in TF-1 cells [3]: 0.54 µg/mL
Fold improvement over 320-179, TL1A induced caspase potency assay in TF-1 cells [3]: 0 fold
TL1A Binding Level (Early) [4]: 59 RU
TL1A Binding Level (Late) [5]: 26 RU
